Reference: publication PMC3755756 (Developmental cell, 2013)
Each block holds one binder with its values, some of them ahead of it.

Biological target: ubiquitin (15N-Ub) (UniProt P0CG48 1-76)
Assay: NMR titration

- Kd: ~50 µM
B1: V domain of human Alix (domain or fragment)
chain: FEKMVPVSVQQSLAAYNQRKADLVNRSIAQMREATTLANGVLASLNLPAAIEDVSGDTVPQSILTKSRSVIEQGGIQTVDQLIKELPELLQRNREILDESLRLLDEEEATDNDLRAKFKERWQRTPSNELYKPLRAEGTNFRTVLDKAVQADGQVKECYQSHRDTIVLLCKPEPELNAAIPSANPAKTMQGSEVVNVLKSLLSNLDEVKKEREGLENDLKSVNFDMTSKFLTALAQDGVINEEALSVTELDRVYGGLTTKVQESLKKQEGLLKNIQVSHQEFSKMKQSNNEANLREEVLKNLATAYDNFVELVANLKEGTKFYNELTEILVRFQNKCSDIVFARKTER

- Kd: ~50 µM
B2: V domain of HD-PTP (domain or fragment, human, UniProt Q9H3S7 401-714, looked up)
chain: MQLDPETVDNLDAYSHIPPQLMEKCAALSVRPDTVRNLVQSMQVLSGVFTDVEASLKDIRDLLEEDELLEQKFQEAVGQAGAISITSKAELAEVRREWAKYMEVHEKASFTNSELHRAMNLHVGNLRLLSGPLDQVRAALPTPALSPEDKAVLQNLKRILAKVQEMRDQRVSLEQQLRELIQKDDITASLVTTDHSEMKKLFEEQLKKYDQLKVYLEQNLAAQDRVLCALTEANVQYAAVRRVLSDLDQKWNSTLQTLVASYEAYEDLMKKSQEGRDFYADLESKVAALLERTQSTCQAREAARQQLLDRELKK
